This series is described as follows: protein stability index of a GFP-peptide fusion (GPS, HEK-293T) (PSI 1-6); higher = more stable. The following applies: c terminus: a fixed tail appended.

± gives the standard deviation.
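Note: 24-mer peptide tiles fused after GFP, lentivirally expressed, FACS-sorted into six equal bins by GFP/DsRed ratio, decoded by Illumina sequencing, PSI is the read-weighted mean bin number.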

For the sequence STHLTVHRRIHTGEKPYECQDCGR [ZNF8], the protein stability index by setting is: (treatment: DMSO) 3.9 ± 0.32; (treatment: MLN4924 1 uM, 8 h) 4.1 ± 0.52.

Take STQIRALTEQQEQLRGQLQDLDSR [RASAL3]: the protein stability index is, setting by setting: (treatment: DMSO) 5.14 ± 0.27; (treatment: MLN4924 1 uM, 8 h) 5.12 ± 0.19.

Regarding SVAPMNVRRGLAGATTLGDMIYVS [KLHL12], the protein stability index (treatment: DMSO) amounted to 2.78 ± 0.53 and the protein stability index (treatment: MLN4924 1 uM, 8 h) was determined as 2.96 ± 0.5.

For SVGGVPGGTGSGDGNKIFLCHCGK [ZBTB22], the protein stability index by setting is: (treatment: DMSO) 3.51 ± 0.19; (treatment: MLN4924 1 uM, 8 h) 3.73 ± 0.47.

Take SVPIVYEKYKTQIDHYVGIARDQT [RTN3]: the protein stability index (treatment: DMSO) amounted to 2.89 ± 0.36 and the protein stability index (treatment: MLN4924 1 uM, 8 h) was found to be 3.06 ± 0.09.

SVSLDRCIKIWDVTSQATLLTITK [WDR88] displayed a protein stability index (treatment: DMSO) of 2.43 ± 0.2 and a protein stability index (treatment: MLN4924 1 uM, 8 h) of 2.43 ± 0.21.

With SVSNSTQTSSSSSQSETSSAVSTP [DLC1], the protein stability index is 5.5 ± 0.1 (treatment: DMSO) and 5.43 ± 0.23 (treatment: MLN4924 1 uM, 8 h).

Take SWTGDGWEFKLSDPDEVARRWGKR [ETS1]: the protein stability index by setting is: (treatment: DMSO) 3.73 ± 0.062; (treatment: MLN4924 1 uM, 8 h) 3.88 ± 0.25.

Sequence SWTTVTSMTTPRCYVGATVLRGRL [KLHL12] displayed a protein stability index (treatment: DMSO) of 2.23 ± 0.15 and a protein stability index (treatment: MLN4924 1 uM, 8 h) of 2.24 ± 0.35.

TALPPMNEARHNFGIVEIDGMLYI [GAN]: the protein stability index by setting is: (treatment: DMSO) 2.24 ± 0.31; (treatment: MLN4924 1 uM, 8 h) 2.08 ± 0.26.

For TASDSESRAESAPLPVSADDTPEV [CDS2], the protein stability index was found to be 5.48 ± 0.45 (treatment: DMSO) and 5.36 ± 0.38 (treatment: MLN4924 1 uM, 8 h).

On to TASLIEDIDKKHLVLLRDGRTLIG [LSM1], for which the protein stability index worked out at 2.83 ± 0.15 (treatment: DMSO) and 2.62 ± 0.32 (treatment: MLN4924 1 uM, 8 h).

Sequence TCSNKKALLKFKPGAFIAGVPVQP [LPCAT4] yielded a protein stability index (treatment: DMSO) of 2.85 ± 0.4 and a protein stability index (treatment: MLN4924 1 uM, 8 h) of 3.03 ± 0.19.

Turning to TDSKELSMAKEVIAKELSKTYQET [ZBED1], the protein stability index turned out to be 4.91 ± 0.1 (treatment: DMSO) and 4.82 ± 0.57 (treatment: MLN4924 1 uM, 8 h).

On to TEPDYKSKDWVFLNYTYKRFEGLT [STK38L], for which the protein stability index was determined as 1.92 ± 0.19 (treatment: DMSO) and 2.39 ± 0.59 (treatment: MLN4924 1 uM, 8 h).

On to TFSMPSDSHVSSCSEDWVGYQRKC [CD69], for which the protein stability index runs as follows: (treatment: DMSO) 3.64 ± 0.23; (treatment: MLN4924 1 uM, 8 h) 3.51 ± 0.23.

For the sequence TFVSGGCDKKAMVWDMRSGQCVQA [GNB5], the protein stability index reads like this: (treatment: DMSO) 2.68 ± 0.2; (treatment: MLN4924 1 uM, 8 h) 2.89 ± 0.46.

For the sequence TFWASWRAFAQIGPARSGFRLETL [MIR22HG], the protein stability index is 2.73 ± 0.42 (treatment: DMSO) and 2.47 ± 0.41 (treatment: MLN4924 1 uM, 8 h).

Consider TGANTKKPEDTAEDLTAKRKRMKM [FAM9B], for which the protein stability index amounted to 5.4 ± 0.28 (treatment: DMSO) and 5.15 ± 0.51 (treatment: MLN4924 1 uM, 8 h).

Take TGTALRFRVLCTAPAKYTVFDAEG [MOSPD3]: the protein stability index (treatment: DMSO) was 2.49 ± 0.95 and the protein stability index (treatment: MLN4924 1 uM, 8 h) turned out to be 2.54 ± 0.41.

For the sequence TKGHPRAVSQPFRLSSSLQGSAVT [CDC14A], the protein stability index reads like this: (treatment: DMSO) 3.49 ± 0.41; (treatment: MLN4924 1 uM, 8 h) 3.54 ± 0.28.

With TKLHDIDGVPHLILIASRDIAAGE [KMT5A], the protein stability index is, setting by setting: (treatment: DMSO) 2.36 ± 0.33; (treatment: MLN4924 1 uM, 8 h) 2.33 ± 0.25.

Take TLDVYNPFETREPPPAYEPPAPAP [SCAMP3]: the protein stability index by setting is: (treatment: DMSO) 4.51 ± 0.18; (treatment: MLN4924 1 uM, 8 h) 4.61 ± 0.2.

TLPAGADFLMCYSVAEGYYSHRET [CASP6] yielded a protein stability index (treatment: DMSO) of 2.5 ± 0.15 and a protein stability index (treatment: MLN4924 1 uM, 8 h) of 2.51 ± 0.4.

As to TLVSRAHQLVMEGYNWCHDRNVVT [PPP2CA], the protein stability index is, setting by setting: (treatment: DMSO) 2.27 ± 0.23; (treatment: MLN4924 1 uM, 8 h) 2.21 ± 0.13.

Consider TPVVLVGNKSDLKQLRQVTKEEGL [RIT1], for which the protein stability index by setting is: (treatment: DMSO) 4.54 ± 0.15; (treatment: MLN4924 1 uM, 8 h) 4.59 ± 0.32.

TQHLPRECLPENLGGYVKIDLATW [PTPN9] displayed a protein stability index (treatment: DMSO) of 2.34 ± 0.4 and a protein stability index (treatment: MLN4924 1 uM, 8 h) of 2.31 ± 0.41.

For TRHEGSFQVPVLCAVMNVVFITIL [CD69], the protein stability index reads like this: (treatment: DMSO) 2.76 ± 0.55; (treatment: MLN4924 1 uM, 8 h) 2.63 ± 0.58.

TSRDRKDHMVRMHLYPADFRFDKP [ZNF511]: the protein stability index by setting is: (treatment: DMSO) 2.87 ± 0.31; (treatment: MLN4924 1 uM, 8 h) 3.22 ± 0.14.

Consider TSRGGPWVGTGLAAALAGLVGLAT [CPOX], for which the protein stability index reads like this: (treatment: DMSO) 1.89 ± 0.93; (treatment: MLN4924 1 uM, 8 h) 2.49 ± 0.087.

The sequence TSRRARASKKTAQPWVEVVLALRN [MFSD9] showed a protein stability index (treatment: DMSO) of 2.33 ± 0.12 and a protein stability index (treatment: MLN4924 1 uM, 8 h) of 2.58 ± 0.19.

Take TSSSTVVSTQRSQDHFHVFVGDLS [TIA1]: the protein stability index (treatment: DMSO) worked out at 3.34 ± 0.071 and the protein stability index (treatment: MLN4924 1 uM, 8 h) was 3.42 ± 0.23.

For TVFYIPEDHKPGTFPKALTNGSFS [DLC1], the protein stability index was found to be 2.86 ± 0.14 (treatment: DMSO) and 3.11 ± 0.26 (treatment: MLN4924 1 uM, 8 h).

On to TVGTPDYIAPEVFMQTGYNKLCDW [STK38L], for which the protein stability index reads like this: (treatment: DMSO) 2.82 ± 0.16; (treatment: MLN4924 1 uM, 8 h) 2.97 ± 0.37.

For the sequence TYKLKCKALQEENRDLRKASVTIQ [CCDC6], the protein stability index runs as follows: (treatment: DMSO) 3.64 ± 0.3; (treatment: MLN4924 1 uM, 8 h) 3.7 ± 0.21.

Regarding TYQVHDYLRSKLCSLYENDCIFDK [PPP2R2C], the protein stability index stood at 2.22 ± 0.26 (treatment: DMSO) and 2.32 ± 0.48 (treatment: MLN4924 1 uM, 8 h).

Consider VAAGEKSILTDNPTWIIDPIDGTT [IMPA1], for which the protein stability index is 3.92 ± 0.19 (treatment: DMSO) and 4.03 ± 0.2 (treatment: MLN4924 1 uM, 8 h).

Consider VCGQNWGIVEAMVVCRQLGLGFAS [LOXL2], for which the protein stability index is, setting by setting: (treatment: DMSO) 3.33 ± 0.11; (treatment: MLN4924 1 uM, 8 h) 3.18 ± 2.

Consider VCYTACATLKGPDSHYGTKGLKKV [BTBD1], for which the protein stability index (treatment: DMSO) was determined as 3.06 ± 0.42 and the protein stability index (treatment: MLN4924 1 uM, 8 h) was found to be 3.21 ± 0.23.

VDCTEIFGGNPRFLSLHRAHLGEE [ZNF263] came in with a protein stability index (treatment: DMSO) of 3.11 ± 0.4 and a protein stability index (treatment: MLN4924 1 uM, 8 h) of 3.24 ± 0.25.

For VDHQGVSWYHWKGFEFSVPFTEMK [TNXB], the protein stability index by setting is: (treatment: DMSO) 2.45 ± 0.55; (treatment: MLN4924 1 uM, 8 h) 2.49 ± 0.74.

Regarding VDMECQTDAFLDRPPTPLFIPAKT [RSPH3], the protein stability index reads like this: (treatment: DMSO) 4.01 ± 0.1; (treatment: MLN4924 1 uM, 8 h) 4.19 ± 0.061.

Turning to VEAVKNELRRQAPPPPPPSRGGPP [WASL], the protein stability index came to 4.91 ± 0.29 (treatment: DMSO) and 4.92 ± 0.078 (treatment: MLN4924 1 uM, 8 h).

VFGTSLTARVIIPLLKDEGFAVKA [GFOD1] registered a protein stability index (treatment: DMSO) of 2.7 ± 0.57 and a protein stability index (treatment: MLN4924 1 uM, 8 h) of 2.34 ± 0.25.

With VFPAPVVGSGGATSGKLLLEADEL [ZBTB22], the protein stability index reads like this: (treatment: DMSO) 4.93 ± 0.25; (treatment: MLN4924 1 uM, 8 h) 4.73 ± 0.22.

As to VFQHGDNSFRLLFDVVVILTCSLS [MCOLN1], the protein stability index is, setting by setting: (treatment: DMSO) 3.25 ± 0.13; (treatment: MLN4924 1 uM, 8 h) 3.32 ± 0.21.

As to VFSFDLHEPLSKERVEAFSDGVYA [TMEM175], the protein stability index was 3.1 ± 0.24 (treatment: DMSO) and 3.24 ± 0.28 (treatment: MLN4924 1 uM, 8 h).

Turning to VGDEFLNCKLATRAKDFLPADIQA [SNX8], the protein stability index is 2.88 ± 0.26 (treatment: DMSO) and 2.92 ± 0.27 (treatment: MLN4924 1 uM, 8 h).

On to VGITVLNLCALSVDRYRAVASWSR [EDNRA], for which the protein stability index came to 2.86 ± 0.66 (treatment: DMSO) and 2.87 ± 0.6 (treatment: MLN4924 1 uM, 8 h).

Turning to VGQQVHNLLLTYLIVTSLLLLPGL [ARL6IP1], the protein stability index was determined as 3.27 ± 0.26 (treatment: DMSO) and 3.46 ± 0.57 (treatment: MLN4924 1 uM, 8 h).

For VGSDEEDDSGKDKKKKTKKIKEKY [HSP90AB1], the protein stability index (treatment: DMSO) came out at 5.31 ± 0.47 and the protein stability index (treatment: MLN4924 1 uM, 8 h) worked out at 5.32 ± 0.42.

VHSERKLLPLVTLCDGNPRRPSPV [SCNN1D] returned a protein stability index (treatment: DMSO) of 3.58 ± 0.23 and a protein stability index (treatment: MLN4924 1 uM, 8 h) of 3.56 ± 0.49.

For VHVSESSDDDEEEEENIGCEEKAK [ACBD3], the protein stability index by setting is: (treatment: DMSO) 5.55 ± 0.32; (treatment: MLN4924 1 uM, 8 h) 5.62 ± 0.12.

Values taken from the supplement of paper PMC10567573.
